Measured values reported in PMC10916880 (Molecular Biology of the Cell, 2024).

Assays:
[1] = target: microtubules assembled from purified beta-R380C yeast tubulin (Tub1/Tub2-R380C) (yeast, UniProt P09733 1-447; P02557 1-457, R380C); test: single-molecule TIRF microscopy of kinesin-GFP on surface-attached microtubules
[2] = target: microtubules assembled from purified wildtype yeast tubulin (Tub1/Tub2 heterodimer) (yeast, UniProt P09733 1-447; P02557 1-457); test: as above

increase in binding frequency relative to wildtype microtubules [1] | plus-end dwell time relative to wildtype microtubules [1] | fold increase in binding relative to full-length Kif21a [2] | increase in plus-end dwell time relative to wildtype microtubules [1] | plus-end dwell time relative to wildtype microtubules, high salt [1] | Binder
29% | 2 fold | – | – | – | full-length mouse Kif21a fused to GFP (natural protein, UniProt Q9QXL2 1-1672, looked up) MLGAADESSVRVAVRIRPQLAKEKIEGCHICTSVTPGEPQVFLGKDKAFTFDYVFDIDSQQEQIYTQCIEKLIEGCFEGYNATVFAYGQTGAGKTYTMGTGFDVNIMEEEQGIISRAVRHLFKSIDEKKTSAIKNGLPPPEFKVNAQFLELYNEEVLDLFDTTRDIDAKNKKSNIRIHEDSTGGIYTVGVTTRTVNTEPEMMQCLKLGALSRTTASTQMNVQSSRSHAIFTIHVCQTRVCPQTDAENATDNKLISESSPMNEFETLTAKFHFVDLAGSERLKRTGATGERAKEGISINCGLLALGNVISALGDKSKRATHVPYRDSKLTRLLQDSLGGNSQTIMIACVSPSDRDFMETLNTLKYANRARNIKNKVMVNQDRASQQINALRSEITRLQMELMEYKTGKRIIDEEGVESINDMFHENAMLQTENNNLRVRIKAMQETVDALRARITQLVSEQANQVLARAGEGNEEISNMIHSYIKEIEDLRAKLLESEAVNENLRKNLTRATARSPYFSASSAFSPTILSSDKETIEIIDLAKKDLEKLKRKEKKKKKRLQKLEESGREERSVAGKDDNADTDQEKKEEKGVSEKENNELDVEENQEVSDHEDEEEEEEDEEEEDDIEGEESSDESDSESDEKANYQADLANITCEIAIKQKLIDELENSQKRLQTLKKQYEEKLMMLQHKIRDTQLERDQVLQNLGSVESYSEEKAKKVKCEYEKKLHAMNKELQRLQTAQKEHARLLKNQSQYEKQLKKLQQDVMEMKKTKVRLMKQMKEEQEKARLTESRRNREIAQLKKDQRKRDHQLRLLEAQKRNQEVVLRRKTEEVTALRRQVRPMSDKVAGKVTRKLSSSESPAPDTGSSAASGEADTSRPGTQQKMRIPVARVQALPTPTTNGTRKKYQRKGFTGRVFTSKTARMKWQLLERRVTDIIMQKMTISNMEADMNRLLRQREELTKRREKLSKRREKIVKESGEGDKSVANIIEEMESLTANIDYINDSIADCQANIMQMEEAKEEGETLDVTAVINACTLTEARYLLDHFLSMGINKGLQAAQKEAQIKVLEGRLKQTEITSATQNQLLFHMLKEKAELNPELDALLGHALQDLDGAPPENEEDSSEEDGPLHSPGSEGSTLSSDLMKLCGEVKPKNKARRRTTTQMELLYADSSEVASDTSAGDASLSGPLAPVAEGQEIGMNTETSGTSARDKELLAPSGLPSKIGSISRQSSLSEKKVPEPSPVTRRKAYEKADKPKAKEHKHSDSGASETSLSPPSSPPSRPRNELNVFNRLTVPQGTPSVQQDKSDESDSSLSEVHRGIINPFPACKGVRASPLQCVHIAEGHTKAVLCVDSTDDLLFTGSKDRTCKVWNLVTGQEIMSLGVHPNNVVSVKYCNYTSLVFTVSTSYIKVWDIRESAKCIRTLTSSGQVTLGEACSASTSRTVAIPSGESQINQIALNPTGTFLYAASGNAVRMWDLKRFQSTGKLTGHLGPVMCLTVDQISNGQDLIITGSKDHYIKMFDVTEGALGTVSPTHNFEPPHYDGIEALAIQGDNLFSGSRDNGIKKWDLAQKGLLQQVPNAHKDWVCALGLVPGHPVLLSGCRGGILKLWNVDTFVPVGEMRGHDSPINAICVNSTHVFTAADDRTVRIWKAHNLQDGQLSDTGDLGEDIASN
31% | – | ~100 fold | 45% | ~2 fold | truncated mouse Kif21a-917 fused to GFP (domain or fragment, UniProt Q9QXL2 1-917, looked up) MLGAADESSVRVAVRIRPQLAKEKIEGCHICTSVTPGEPQVFLGKDKAFTFDYVFDIDSQQEQIYTQCIEKLIEGCFEGYNATVFAYGQTGAGKTYTMGTGFDVNIMEEEQGIISRAVRHLFKSIDEKKTSAIKNGLPPPEFKVNAQFLELYNEEVLDLFDTTRDIDAKNKKSNIRIHEDSTGGIYTVGVTTRTVNTEPEMMQCLKLGALSRTTASTQMNVQSSRSHAIFTIHVCQTRVCPQTDAENATDNKLISESSPMNEFETLTAKFHFVDLAGSERLKRTGATGERAKEGISINCGLLALGNVISALGDKSKRATHVPYRDSKLTRLLQDSLGGNSQTIMIACVSPSDRDFMETLNTLKYANRARNIKNKVMVNQDRASQQINALRSEITRLQMELMEYKTGKRIIDEEGVESINDMFHENAMLQTENNNLRVRIKAMQETVDALRARITQLVSEQANQVLARAGEGNEEISNMIHSYIKEIEDLRAKLLESEAVNENLRKNLTRATARSPYFSASSAFSPTILSSDKETIEIIDLAKKDLEKLKRKEKKKKKRLQKLEESGREERSVAGKDDNADTDQEKKEEKGVSEKENNELDVEENQEVSDHEDEEEEEEDEEEEDDIEGEESSDESDSESDEKANYQADLANITCEIAIKQKLIDELENSQKRLQTLKKQYEEKLMMLQHKIRDTQLERDQVLQNLGSVESYSEEKAKKVKCEYEKKLHAMNKELQRLQTAQKEHARLLKNQSQYEKQLKKLQQDVMEMKKTKVRLMKQMKEEQEKARLTESRRNREIAQLKKDQRKRDHQLRLLEAQKRNQEVVLRRKTEEVTALRRQVRPMSDKVAGKVTRKLSSSESPAPDTGSSAASGEADTSRPGTQQKMRIPVARVQALPTPTTNGTRKKYQRKGFTGRVFT
